Measured values published in patent publication US12138415B2, “Increased bioavailability of transdermally delivered agents” (priority 2011, dated 2024).

What was measured:
[1] = tested on: Dynamin; conditions: cited from earlier work
[2] = Organ and tissue etanercept concentration after 72 hours (sTNF RII ELISA); conditions: rabbit
Method: Test subjects (rabbits) were transdermally dosed with Enbrel® or were subcutaneously (SubQ) dosed with Enbrel®. […] The subcutaneous dose formulation (for the positive control) was prepared to facilitate a 2.5 mg/animal and the transdermal dose formulation was 1.875 mg/animal. Two subjects were utilized for each device type.
After 72 hours, several different organs and tissue types in each subject were examined for etanercept concentration. Specifically, organ representative samples of approximately 100 mg each were placed in labeled 50 mL conical storage tubes and stored in the dark at approximately −70° C. for preservation testing.
For analysis of Enbrel levels in tissues at the analytical laboratory, tissues were tested by use of a Quantikine® Human sTNF RII/TNFRSF1B Immunoassay (catalog no. DRT200, SRT200, PDRT200) available from R&D Systems, Inc. of Minneapolis, MN, USA. The immunoassay is a solid phase ELISA assay for determination of sTNF RII. The protein was measured against the standard provided with the kit, and etanercept was measured against a standard curve, with concentrations based on the dosage details.
All concentrations are provided as ng/g tissue. The ELISA detection mechanism could be utilized for concentrations down to about 0.6 pg/mL. Results of <MIN signify a concentration too low to be determined by the ELISA assay. Results of N/A indicate an error in the ELISA assay, with no reportable results obtained.

[3] = tested on: monolayer of Caco-2 cells; test: Caco-2 monolayer permeability (TEER) transport study of FITC-etanercept with Dynasore blocking Dynamin; assay type: in vitro ADME, human; conditions: DN2 polypropylene film, 0.1 mg/mL Dynasore and FITC-conjugated etanercept, FIG. 25
Method: The permeability effects of films patterned as described above were determined on a monolayer of Caco-2 cells (human epithelial colorectal adenocarcinoma cells). The effects of the nanostructured surfaces on transcellular transport mechanisms were investigated by blocking Dynamin, a critical protein in endocytosis, with Dynasore. Dynamin is a large GTPase protein that self-assembles into a spiral shape, constricting around budding vesicles to free them from the plasma membrane and into the cytosol for transcellular transport. The small molecule, Dynasore, is able to rapidly block the activity of Dynamin by quickly inhibiting the GTPase module of Dynamin within about 2 minutes and has been used in numerous studies for probing the mechanisms of cellular internalization and endocytosis for transcellular transport. The transport study was a transepithelial electrical resistance (TEER) study that was carried out in the presence of Dynasore to biochemically block the activity of Dynamin and preclude both clathrin and caveolin mediated endocytosis.
Films formed as described in Example 1 and Example 2 were utilized including a polypropylene (PP) film formed with a pattern designated as DN2, and a flat, nonpatterned polypropylene film. As control, a monolayer of cells with no associated film was utilized.
• 1. […] Measure fluorescence signal using a spectrofluorometer plate reader. […]

[4] = tested on: EpiDerm™ tissue; test: Etanercept delivery across EpiDerm tissue on nanopatterned film (donor/receptor chamber); assay type: in vitro ADME; conditions: 1 mg/mL, 37° C.; for increase in the amount of etanercept in the receiver chamber: EpiDerm tissue on DN2 patterned film
Description: A device as illustrated in FIG. 28 was assembled including a film (i.e., a membrane) defining a pattern of nanostructures on a surface thereof. The film was formed as described above in Example 1 and was a polypropylene film including a DN2 pattern on the surface thereof. An EpiDerm™ tissue, a three dimensional construct organized into basal, spinous, and granular layers along a multi-layered stratum corneum available from MatTek Corporation, was located on the surface of the film as described above with regard to the monocellular layer.
A 1 mg/mL composition including the high molecular weight drug etanercept (Enbrel®) was prepared. Etanercept is a fusion protein having a molecular weight of 150 kDa. Phosphate buffered saline was located in the receptor chamber. The system was incubated at 37° C. and samples were withdrawn every five hours.
The composition was loaded in to the donor chamber on one side of an EpiDerm™ tissue either on the DN2 nanostructure film or on a polypropylene film with no nanopattern formed thereon (PPUI), and samples were withdrawn from the receptor chamber on the other side of the cell layer, as illustrated in FIG. 28. As can be see with reference to FIG. 29, following one hour, very little etanercept had passed into the receptor chamber for the control, while there was approximately a 1.7 fold increase in the amount of etanercept in the receiver chamber for the sample on the DN2 patterned film. After two hours, there was an approximately 2-fold increase for the system including the DN2 patterned film.

[5] = rabbit, in vivo
Description: An array of microneedles including a nanopatterned surface was formed. Initially, an array of microneedles as illustrated in FIG. 2 was formed on a silicon wafer via a photolithography process. Each needle included two oppositely placed side channels, aligned with one through-die hole in the base of the needle (not visible on FIG. 2).
Microneedles were formed according to a typical micromachining process on a silicon based wafer. The wafers were layered with resist and/or oxide layers followed by selective etching (oxide etching, DRIE etching, iso etching), resist stripping, oxide stripping, and lithography techniques (e.g., iso lithography, hole lithography, slit lithography) according to standard methods to form the array of microneedles. The microneedles were 300 microns tall and 100 microns in diameter.
Following formation of the microneedle array, a 5 μm polypropylene film including a DN2 or a polypropylene film including a DN3 pattern formed thereon as described above in Example 1 was laid over the microneedle array. The wafer/film structure was held on a heated vacuum box (3″ H2O vacuum) at elevated temperature (130° C.) for a period of one hour to gently pull the film over the surface of the microneedles while maintaining the nanopatterned surface of the film.
The transdermal patches measured 25 mm by 25 mm with a density of 784 microneedles/cm^2. Control patches were also formed that had no pattern formed on the film subsequently applied to the array of microneedles.
Two subjects were utilized for each device type.
Approximately 100 to 200 μl blood was taken via—mandibular bleeding and then centrifuged at approximately 1300 rpm for 10 minutes in a refrigerated centrifuge (set at 4° C.). The resulting serum was aspirated and transferred within 30 minutes of blood collection/centrifugation to appropriately labeled tubes. The tubes were frozen and stored in the dark at ≤−70° C. until they were analyzed for levels of Enbrel® using Human sTNF-receptor ELISA kit (R&D Systems cat #DRT200). The space time between two blood samplings on the same subject was 24 hours, to prevent unnecessary stress placed on the subject.
Following, the blood serum level gradually declined within 56 hours of attachment and then leveled off.

Row | Compound | time to inhibit the GTPase module of Dynamin [1] [min] | etanercept concentration in kidney ([2]; Subcutaneous dose 2.5 mg/animal) [ng/g tissue] | etanercept concentration in kidney ([2]; microneedle patch with Control Film (no pattern), 1.875 mg/animal) [ng/g tissue] | etanercept concentration in kidney ([2]; microneedle patch with DN3 pattern, 1.875 mg/animal) [ng/g tissue] | effect of blocking the transcellular delivery route on etanercept transport across the layer [3] | increase in the amount of etanercept in the receiver chamber ([4]; after two hours) | increase in the amount of etanercept in the receiver chamber ([4]; following one hour) [fold] | amount of etanercept passed into the receptor chamber ([4]; EpiDerm tissue on polypropylene film with no nanopattern (PPUI, control), following one hour) | absorption of etanercept compared to the flat, unstructured device [5] | bioavailability relative to the control patch [5] | blood serum level of etanercept (course) [5] | decrease of time to reach the maximum concentration [5] [h] | increase in the maximum concentration [5] [%] | time of peak blood serum level [5] | time within which blood serum level gradually declined, then leveled off [5] [h]
1 | O=C(N/N=C/c1ccc(O)c(O)c1)c1cc2ccccc2cc1O [Dynasore] | ≤ 2 | – | – | – | – | – | – | – | – | – | – | – | – | – | –
2 | etanercept | – | 10.14 | 10.66 | 11.3 | did not significantly decrease | approximately 2 fold | ~1.7 | very little | significantly increased | about 35 times | very low levels | ~24 | 95 | approximately 48 hours | ≤ 56
